This passage reports NO reactivity results from patent US20210260155A1, “H-NOX Proteins for Treating Cardiovascular and Pulmonary Conditions” (OMNIOX.INC., priority 2018, published 2021).

The assay is described as follows: NO reactivity. Type of assay: biochemical. As for the experimental part:
NO reactivity is measured using purified proteins (H-NOX, polymeric H-NOX, Homo sapiens hemoglobin (Hs Hb) etc.) prepared at 2 μM in buffer A and NO prepared at 200 μM in Buffer A (Buffer A: 50 mM Hepes, pH 7.5, 50 mM NaCl). Data are acquired on a HI-TECH Scientific SF-61 stopped-flow spectrophotometer equipped with a Neslab RTE-100 constant-temperature bath set to 20° C. (TGK Scientific LTD., Bradford On Avon, United Kingdom). The protein is rapidly mixed with NO in a 1:1 ratio with an integration time of 0.00125 sec. The wavelengths of maximum change are fit to a single exponential using the software that is part of the spectrometer, essentially measuring the rate-limiting step of oxidation by NO. The end products of the reaction are ferric-NO for the HNOX proteins and ferric-aquo for Hs Hb.

B1: wild-type T. tengcongensis H-NOX: wild-type Thermoanaerobacter tengcongensis H-NOX protein, SEQ ID NO:2 (protein, listed as Thermoanaerobacter tengcongensis)
chain: MKGTIVGTWIKTLRDLYGNDVVDESLKSVGWEPDRVITPLEDIDDDEVRRIFAKVSEKTGKNVNEIWREVGRQNIKTFSEWFPSYFAGRRLVNFLMMMDEVHLQLTKMIKGATPPRLIAKPVAKDAIEMEYVSKRKMYDYFLGLIEGSSKFFKEEISVEEVERGEKDGFSRLKVRIKFKNPVFE
As to B1, the NO reactivity entry is on record as “low”.
